12 molecules from US20250108090A1 (published 2025) can be followed below.

Numbering of substitutions follows the chain as printed.

The chains are these.
T1: mouse AIM 2CS mutant (mouse, UniProt Q9QWK4 22-352)
T1 construct: Isolated cysteine of the SRCR2 domain replaced by serine; also called mouse 2CS mutant; 2CS AIM mutant
T1 sequence (looked up): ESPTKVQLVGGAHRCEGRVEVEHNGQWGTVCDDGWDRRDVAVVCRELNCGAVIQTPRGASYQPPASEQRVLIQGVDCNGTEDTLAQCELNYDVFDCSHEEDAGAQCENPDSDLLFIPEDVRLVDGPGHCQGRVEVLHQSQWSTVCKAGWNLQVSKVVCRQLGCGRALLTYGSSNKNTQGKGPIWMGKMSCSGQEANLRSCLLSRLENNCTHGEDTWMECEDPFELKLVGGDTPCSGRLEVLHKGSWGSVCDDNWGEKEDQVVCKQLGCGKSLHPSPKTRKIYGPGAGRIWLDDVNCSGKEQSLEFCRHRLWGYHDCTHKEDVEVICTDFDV

B1: human S100A9 (9254-S9-050, R&D Systems) (ligand, UniProt P06702 1-114, looked up)
chain: MTCKMSQLERNIETIINTFHQYSVKLGHPDTLNQGEFKELVRKDLQNFLKKENKNEKVIEHIMEDLDTNADKQLSFEEFIMLMARLTWASHEKMHEGDEGPGHHHKPGLGEGTP
B2: human apoptosis inhibitor of macrophage (AIM) (other)
chain: SPSGVRLVGGLHRCEGRVEVEQKGQWGTVCDDGWDIKDVAVLCRELGCGAASGTPSGILYEPPAEKEQKVLIQSVSCTGTEDTLAQCEQEEVYDCSHDEDAGASCENPESSFSPVPEGVRLADGPGHCKGRVEVKHQNQWYTVCQTGWSLRAAKVVCRQLGCGRAVLTQKRCNKHAYGRKPIWLSQMSCSGREATLQDCPSGPWGKNTCNHDEDTWVECEDPFDLRLVGGDNLCSGRLEVLHKGVWGSVCDDNWGEKEDQVVCKQLGCGKSLSPSFRDRKCYGPGVGRIWLDNVRCSGEEQSLEQCQHRFWGFHDCTHQEDVAVICSG
notes: also called human AIM; human rAIM
B3: mouse apoptosis inhibitor of macrophage (AIM), wild-type recombinant (other, UniProt Q9QWK4 22-352, looked up)
chain: T1 sequence (looked up) with S173C
notes: mature; also called rAIM; mouse AIM
B4: mouse PRDX1 with a HA tag (generated in house) (ligand, UniProt P35700 1-199, looked up)
chain: MSSGNAKIGYPAPNFKATAVMPDGQFKDISLSEYKGKYVVFFFYPLDFTFVCPTEIIAFSDRADEFKKLNCQVIGASVDSHFCHLAWINTPKKQGGLGPMNIPLISDPKRTIAQDYGVLKADEGISFRGLFIIDDKGILRQITINDLPVGRSVDEIIRLVQAFQFTDKHGEVCPAGWKPGSDTIKPDVNKSKEYFSKQK
notes: also called peroxiredoxin 1; mouse PRDXs with a HA tag; not shown: HA tag
B5: human HMGB1 (1690-HMB-050, R&D Systems) (ligand, UniProt P09429 1-215, looked up)
chain: MGKGDPKKPRGKMSSYAFFVQTCREEHKKKHPDASVNFSEFSKKCSERWKTMSAKEKGKFEDMAKADKARYEREMKTYIPPKGETKKKFKDPNAPKRPPSAFFLFCSEYRPKIKGEHPGLSIGDVAKKLGEMWNNTAADDKQPYEKKAAKLKEKYEKDIAAYRAKGKPDAAKKGVVKAEKSKKKKEEEEDEEDEEDEEEEEDEEDEDEEEDDDDE
notes: also called high-mobility-group-box 1
B6: mouse S100A8/A9 (8916-S8-050, R&D Systems) (ligand)
chain 1: MPSELEKALSNLIDVYHNYSNIQGNHHALYKNDFKKMVTTECPQFVQNINIENLFRELDINSDNAINFEEFLAMVIKVGVASHKDSHKE
chain 2: MANKAPSQMERSITTIIDTFHQYSRKEGHPDTLSKKEFRQMVEAQLATFMKKEKRNEALINDIMEDLDTNQDNQLSFEECMMLMAKLIFACHEKLHENNPRGHGHSHGKGCGK
notes: Complex of S100A8 and S100A9 as bought; also called S100A8/9
B7: mouse S100A8 (9877-S8-050, R&D Systems) (ligand, UniProt P27005 1-89, looked up)
chain: B6 chain 1
B8: mouse S100A9 (2065-S9-050, R&D Systems) (ligand, UniProt P31725 1-113, looked up)
chain: B6 chain 2
B9: mouse PRDX6 with a HA tag (generated in house) (ligand, UniProt O08709 1-224, looked up)
chain: MPGGLLLGDEAPNFEANTTIGRIRFHDFLGDSWGILFSHPRDFTPVCTTELGRAAKLAPEFAKRNVKLIALSIDSVEDHLAWSKDINAYNGETPTEKLPFPIIDDKGRDLAILLGMLDPVEKDDNNMPVTARVVFIFGPDKKLKLSILYPATTGRNFDEILRVVDSLQLTGTKPVATPVDWKKGESVMVVPTLSEEEAKQCFPKGVFTKELPSGKKYLRYTPQP
notes: also called PRDXs; not shown: HA tag
B10: mouse PRDX2 with a HA tag (generated in house) (ligand, UniProt Q61171 1-198, looked up)
chain: MASGNAQIGKSAPDFTATAVVDGAFKEIKLSDYRGKYVVLFFYPLDFTFVCPTEIIAFSDHAEDFRKLGCEVLGVSVDSQFTHLAWINTPRKEGGLGPLNIPLLADVTKSLSQNYGVLKNDEGIAYRGLFIIDAKGVLRQITVNDLPVGRSVDEALRLVQAFQYTDEHGEVCPAGWKPGSDTIKPNVDDSKEYFSKHN
notes: as for B9
B11: human S100A8 (9876-58-050, R&D Systems) (ligand, UniProt P05109 1-93, looked up)
chain: MLTELEKALNSIIDVYHKYSLIKGNFHAVYRDDLKKLLETECPQYIRKKGADVWFKELDINTDGAVNFQEFLILVIKMGVAAHKKSHEESHKE
B12: human S100A8/A9 (8226-S8-050, R&D Systems) (ligand)
chain 1: B11 chain
chain 2: B1 chain
notes: as for B6

For test [1], the target named is B2. The test can be described thus: ELISA, DAMP coated at 2 µg/mL, AIM in solution (FIG. 3A). An excerpt: (§1) Therefore, AIM is considered to stably bind to DAMPs through two independent binding modes, namely, charge-based interaction and disulfide bond formation. These two binding sites are also used to bind AIM and IgM pentamer, as previously reported by the present inventors (Hiramoto et al., (2018) (the aforementioned)). […] Furthermore, IgM pentamer not bound to AIM inhibited the binding of AIM to DAMPs in a dose-dependent manner (FIG. 3G). That is, the binding to IgM pentamer functionally inactivates AIM in the binding to DAMPs. Furthermore, the present inventors evaluated under a fluorescence microscope whether the trap and uptake of PRDX1, HMGB1, and S100A9 by macrophages in vitro is inhibited in the presence of rAIM. […] It is known that somewhat larger molecules are more easily taken up by phagocytes (Aderem & Underhill, (1999). Mechanisms of Phagocytosis in Macrophages. Annu. Rev. Immunol. 17, 593-623.; Sarrias et al., (2005) (the aforementioned); Canton et al., Scavenger receptors in homeostasis and immunity. Nat. Rev. Immunol. 13, 621-634.). Therefore, induction of PRDX1 aggregation by AIM is further advantageous for PRDX1 phagocytosis.
(In an ELISA, binding on a coated surface is turned into a signal by an enzyme label.)

In test [2] the target is human HSP70 (Endotoxin Free; SPR-117A, StressMarq) (human, UniProt P0DMV8 1-641). Briefly: ELISA, DAMP coated at 2 µg/mL, AIM in solution (FIG. 4).
Source text: as §1

The target of test [3] is mouse HSP70-A1 (low endotoxin; ADI-ESP-502-D, Enzo) (mouse, UniProt Q61696 1-641). The description is as above.
Source text: as §1

The target in test [4] is T1, mouse AIM 2CS mutant. The test can be described thus: ELISA on coated DAMP (FIG. 3E). As to the method: 96-well ELISA plates were coated with DAMPs and control proteins resolved in Bicarbonate buffer (0.1 M NaHCO₃/Na₂CO₃, pH 9.6) at 2 μg/mL unless otherwise specified O/N at 4° C. After the plates were washed with tris buffered saline-tween (TBS-T) four times, they were coated with blocking buffer (1% Casein/TBS) for 2 h at RT. After a wash with TBS-T, AIM resolved in a dilution buffer (0.2% Casein/TBS/2 mM CaCl₂) at various concentrations was added to the well and plates were incubated for 1 h at RT. After 5-times wash with TBS-T/2 mM CaCl₂, biotinylated anti-mouse or human AIM antibody (clone #35 for mouse, clone 7 for human) was added to the wells and incubated for 1 h at RT. After 4-times wash with TBS-T/2 mM CaCl₂, Streptavidin-HRP diluted in 0.2% Casein/TBS/2 mM CaCl₂ was added to the wells and incubated for 1 h at RT. After 4-times wash with TBS-T/2 mM CaCl₂, TMB was added and incubated at RT for 10-25 min. The reaction was stopped by adding 1 N H₂SO₄ and thereby the absorbance at OD 450 nm was analyzed using a multiple plate reader.

In test [5] the target is B3. The test can be described thus: ELISA, DAMP coated at 2 µg/mL, AIM in solution (FIG. 3A).
Source text: as §1

For test [6], the target named is B3. Briefly: ELISA, DAMP coated at 2 µg/mL, AIM in solution (FIG. 4).
Source text: as §1

Test [7] concerns the target B2. The description is as above.
Source text: as §1

Sequence of mouse HSP70-A1 (low endotoxin; ADI-ESP-502-D, Enzo) (Q61696 whole entry): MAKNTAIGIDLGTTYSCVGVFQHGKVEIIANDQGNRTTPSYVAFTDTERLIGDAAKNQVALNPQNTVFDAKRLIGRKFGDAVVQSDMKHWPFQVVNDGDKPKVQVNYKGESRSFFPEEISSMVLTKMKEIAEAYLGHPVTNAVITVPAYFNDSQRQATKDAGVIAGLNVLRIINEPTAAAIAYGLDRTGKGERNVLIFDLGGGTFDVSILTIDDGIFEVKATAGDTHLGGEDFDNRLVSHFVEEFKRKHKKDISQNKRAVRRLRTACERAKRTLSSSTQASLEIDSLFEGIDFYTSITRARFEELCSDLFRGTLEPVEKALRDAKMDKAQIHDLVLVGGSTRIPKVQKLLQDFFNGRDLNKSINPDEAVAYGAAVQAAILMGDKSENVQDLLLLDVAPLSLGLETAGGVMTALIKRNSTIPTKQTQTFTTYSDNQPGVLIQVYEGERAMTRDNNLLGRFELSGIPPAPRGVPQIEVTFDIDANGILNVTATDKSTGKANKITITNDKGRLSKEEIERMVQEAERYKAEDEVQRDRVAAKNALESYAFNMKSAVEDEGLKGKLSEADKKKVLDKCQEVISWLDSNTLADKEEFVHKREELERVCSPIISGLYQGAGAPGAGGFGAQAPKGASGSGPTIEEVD
Sequence of human HSP70 (Endotoxin Free; SPR-117A, StressMarq) (P0DMV8 whole entry): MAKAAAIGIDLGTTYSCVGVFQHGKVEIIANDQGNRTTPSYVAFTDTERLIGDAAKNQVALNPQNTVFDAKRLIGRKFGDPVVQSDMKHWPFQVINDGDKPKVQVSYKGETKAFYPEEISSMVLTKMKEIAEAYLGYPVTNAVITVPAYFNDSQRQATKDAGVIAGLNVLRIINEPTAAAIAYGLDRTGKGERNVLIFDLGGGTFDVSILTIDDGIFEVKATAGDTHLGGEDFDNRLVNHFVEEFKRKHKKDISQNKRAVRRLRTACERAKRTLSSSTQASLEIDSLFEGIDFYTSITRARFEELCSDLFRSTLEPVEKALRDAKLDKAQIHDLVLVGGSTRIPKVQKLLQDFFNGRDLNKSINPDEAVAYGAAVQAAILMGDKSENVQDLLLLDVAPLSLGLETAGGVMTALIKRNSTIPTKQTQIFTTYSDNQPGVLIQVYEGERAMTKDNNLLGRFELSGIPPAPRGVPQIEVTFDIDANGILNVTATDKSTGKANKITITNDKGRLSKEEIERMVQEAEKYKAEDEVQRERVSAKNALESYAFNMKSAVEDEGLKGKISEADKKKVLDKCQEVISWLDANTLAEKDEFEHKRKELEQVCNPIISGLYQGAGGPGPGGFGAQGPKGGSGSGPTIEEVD

For the molecule B1, the binding result in test [1] is “binds”.

In the case of B2, in test [2], the binding result is listed as “binds”.

For B3, the binding result in test [3] is given as “binds”.

In the case of B4, the binding result in test [4] is “no binding”; in test [5], “binds”.

In the case of B5, the binding result in test [4] is “no binding”; in test [5], “binds”; in test [1], “binds”.

As for B6, the binding result in test [6] is on record as “binds”.

Take B7: the binding result in test [6] is “binds”.

On to B8, for which the binding result in test [4] is “no binding”; in test [5] it was “binds”.

As to B9, the binding result in test [6] was “binds”.

Consider B10, for which the binding result in test [6] is recorded as “binds”.

As for B11, the binding result in test [7] is “binds”.

Take B12: in test [7], the binding result is listed as “binds”.
